The source of these data is publication PMC11117068.

The target in the test is complement C3b (UniProt P01024). Description: not stated; C3b binding affinity of polymorphic variants, data in Supplementary Table S3.

“moss-produced factor H Val62/His402 variant (from UniProt P08603 19-1231) (natural protein)”: the fold lower C3b binding affinity than the CPV-101 Ile62/Tyr402 variant was 1.5 fold.
